Test results from publication PMC7730289.

What was measured:
Test in all cases: flow cytometry
[1] = biological target: CD63 overexpressed on HEK293T cells (UniProt P08962); conditions: HEK293T/CD63 cells; PBS pH 7.4, 2.0 mM MgCl2, 0.02% Tween 20, 100 ug/mL salmon sperm DNA; ELISA 0.5 h; cells at RT 1 h (Methods) or 37 C 30 min (Results)
CD63 on MDA-MB-231 cells = CD63 on MDA-MB-231 cells (UniProt P08962); conditions: MDA-MB-231 cells; PBS pH 7.4, 2.0 mM MgCl2, 0.02% Tween 20, 100 ug/mL salmon sperm DNA; ELISA 0.5 h; cells at RT 1 h (Methods) or 37 C 30 min (Results)
[2] = system: CD63-negative HEK293T cells; conditions: PBS pH 7.4, 2.0 mM MgCl2, 0.02% Tween 20, 100 ug/mL salmon sperm DNA, ELISA 0.5 h, cells at RT 1 h (Methods) or 37 C 30 min (Results)

CD63 overexpressed on HEK293T cells, sequence (P08962 whole entry): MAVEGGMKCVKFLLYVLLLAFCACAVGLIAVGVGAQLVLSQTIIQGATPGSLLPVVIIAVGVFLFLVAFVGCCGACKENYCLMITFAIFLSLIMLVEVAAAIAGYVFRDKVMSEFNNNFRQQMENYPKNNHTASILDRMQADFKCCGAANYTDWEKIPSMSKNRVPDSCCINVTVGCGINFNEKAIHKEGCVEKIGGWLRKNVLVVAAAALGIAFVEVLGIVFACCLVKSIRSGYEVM
CD63 on MDA-MB-231 cells, sequence (P08962 2-238): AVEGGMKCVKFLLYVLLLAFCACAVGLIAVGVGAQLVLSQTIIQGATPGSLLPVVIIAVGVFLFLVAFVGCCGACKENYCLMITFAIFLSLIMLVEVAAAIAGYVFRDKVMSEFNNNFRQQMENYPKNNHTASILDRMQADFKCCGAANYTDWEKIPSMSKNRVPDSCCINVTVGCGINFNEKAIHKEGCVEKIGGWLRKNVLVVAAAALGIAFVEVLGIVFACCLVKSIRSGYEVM

For “TAACACGACAGACGTTCGGAGGTCGAACCCTGACAGCGTGGGC [CD63-1 FAM]”, the Kd [1] was 113 nM, the Kd (CD63 on MDA-MB-231 cells) was 96.9 nM and the Kd [2] was > 1000 nM.
